# Where no end group is shown, it is not given here. The star is where a group is joined. Biotin = O=C1N[C@H]2[C@H](CS[C@H]2CCCCC(=O)*)N1
# T1: biotinylated BC2 tag peptide QGQSGQPDRKAAVSHWQ
# T1 construct: Synthesized at ELIM Biopharmaceuticals; loaded on SSA biosensor tips at 100 nM; also called free BC2T peptide; the peptide
# T1 peptide: Biotin-QGQSGQPDRKAAVSHWQ
# Experiments:
# [1] = target: T1, biotinylated BC2 tag peptide …; assay: BLI (ForteBio Octet), biotinylated peptide on SSA biosensor tips, 100 nM Nb
# Description: (§1) Binding of the unmasked nanobody and single-anchored BC2T-Nb to free BC2T peptide was assessed by BLI using the ForteBio Octet device. While BLI is generally used to calculate association and dissociation kinetics of binding interactions, it was used herein to detect binding Peptide corresponding to the following sequence: […] (SEQ ID NO: 567) was synthesized at ELIM Biopharmaceuticals with a biotin at the N-terminus. The peptide was loaded on SSA biosensor tips (Pall/ForteBio Cat #18-5117) at 100 nM in Binding Buffer (BB: 1×PBS, pH 7.2, 5% glycerol, 0.1% Tween-20, 2% BSA) for 10 minutes. Baseline incubation in BB for 1 min before and after this capture step were used to confirm protein capture. The loaded tips were then incubated in 100 nM Nb in BB for 6 minutes followed by incubation in BB for 6 minutes. Changes in interference distance (nanometers) at the sensor tip are plotted against time to follow the binding/dissociation of soluble proteins from the immobilized ligand on the tip (FIG. 7).
# [2] = target: T1, biotinylated BC2 tag peptide …; assay: BLI (ForteBio Octet), biotinylated peptide on SSA biosensor tips
# Description: Intact ProC653 and ProC654 show no binding to the biotinylated BC2 tag peptide, but binding was recovered upon activation with either MMP14 or MMP9, respectively.
# as §1
binding result [1],binding result [2],Binder
binds,,"ProC649 (PP073), single-domain antibody (nanobody) with no MM attached, with His tag (VHH, Monomer; also called unmasked nanobody; unmasked control) VHH: QVQLVESGGGLVQPGGSLTLSCTASGFTLDHYDIGWFRQAPGKEREGVSCINNSDDDTYYADSVKGRFTIFMNNAKDTVYLQMNSLKPEDTAIYYCAEARGCKRGRYEYDFWGQGTQVTVSS"
,no binding (tested: 100 nM),"ProC654 (PP078), single-anchored BC2T-Nb: BC2 tag-PLGLAG-Nanobody, intact (VHH, Monomer, uncleaved (masked) form; also called single-domain antibody with MM attached with a CM PLGLAG) QGQSGQPDRKAAVSHWQQGGGSSGGSPLGLAGGGGSQVQLVESGGGLVQPGGSLTLSCTASGFTLDHYDIGWFRQAPGKEREGVSCINNSDDDTYYADSVKGRFTIFMNNAKDTVYLQMNSLKPEDTAIYYCAEARGCKRGRYEYDFWGQGTQVTVSSGGSHHHHHHHHHH"
,no binding (tested: 100 nM),"ProC653 (PP077), single-anchored BC2T-Nb: BC2 tag-1490DNI-Nanobody, intact (VHH, Monomer, uncleaved (masked) form; also called single-domain antibody with MM attached with a CM 1490DNI) QGQSGQPDRKAAVSHWQQGGGSSGGSISSGLLSGRSDNIGGGSQVQLVESGGGLVQPGGSLTLSCTASGFTLDHYDIGWFRQAPGKEREGVSCINNSDDDTYYADSVKGRFTIFMNNAKDTVYLQMNSLKPEDTAIYYCAEARGCKRGRYEYDFWGQGTQVTVSSGGSHHHHHHHHHH"

# Reference: patent US20250333487A1 (CYTOMX THERAPEUTICS, published 2025)
